The results in this text go back to patent US20180057553A1 (UNIVERSITY OF TOKYO, published 2018).

Test [1] deals with T1, recombinant human TNF-alpha (Life Technologies) (human, UniProt P01375 77-233). Briefly: SPR (Biacore), conjugate amine-coupled to chip, TNF-alpha as analyte. An excerpt: (§1) Recombinant human TNF-alpha (Life Technologies) was used as TNF-alpha.
Test [2] has as its target T1, recombinant human TNF-alpha (Life …). Briefly: Biacore SPR: conjugate fixed to the sensor chip via an amino group, recombinant human TNF-alpha as analyte at 0.78-100 nM.
Source text: as §1

Test [3] has the same target. Nature of the test: depletion assay: serially diluted conjugate mixed with human TNF-alpha (100% = 6.2 ng/mL), complex adsorbed on diol Sepharose beads, TNF-alpha remaining in the supernatant measured by ELISA; 1st experiment. On the procedure: (§2) The complex of TNF-alpha and the conjugate were then adsorbed using 3 microliters of diol Sepharose beads. Subsequently, TNF-alpha in the supernatant was measured by ELISA, and the percentage of the remaining TNF-alpha was calculated. Experiments were done twice, independently.

The target is the same in test [4]. Nature of the test: depletion assay: serially diluted conjugate mixed with human TNF-alpha (100% = 6.2 ng/mL), complex adsorbed on diol Sepharose beads, TNF-alpha remaining in the supernatant measured by ELISA; 2nd experiment. The protocol:
as §2

T1 sequence (P01375 77-233 limits assumed): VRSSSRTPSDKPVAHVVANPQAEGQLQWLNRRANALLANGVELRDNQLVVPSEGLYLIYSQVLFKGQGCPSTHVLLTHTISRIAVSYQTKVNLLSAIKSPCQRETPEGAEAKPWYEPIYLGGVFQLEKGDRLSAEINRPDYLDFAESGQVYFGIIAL

B1: conjugate of the extracellular region of human TNF receptor 2 (TNFR2) and mutant recombinant human intelectin-1 (S165A) (receptor)
chain: LPAQVAFTPYAPEPGSTCRLREYYDQTAQMCCSKCSPGQHAKVFCTKTSDTVCDSCEDSTYTQLWNWVPECLSCGSRCSSDQVETQACTREQNRICTCRPGWYCALSKQEGCRLCAPLRKCRPGFGVARPGTETSDVVCKPCAPGTFSNTTSSTDICRPHQICNVVAIPGNASMDAVCTSTSPTRSMAPGAVHLPQPVSTRSQHTQPTPEPSTAPSTSFLLPMGPSPPAEGSTGDGTDEANTYFKEWTCSSSPSLPRSCKEIKDECPSAFDGLYFLRTENGVIYQTFCDMTSGGGGWTLVASVHENDMRGKCTVGDRWSSQQGSKADYPEGDGNWANYNTFGSAEAATSDDYKNPGYYDIQAKDLGIWHVPNKSPMQHWRNSALLRYRTDTGFLQTLGHNLFGIYQKYPVKYGEGKCWTDNGPVIPVVYDFGDAQKTASYYSPYGQREFTAGFVQFRVFNNERAANALCAGMRVTGCNTEHHCIGGGGYFPEASPQQCGDFSGFDWSGYGTHVGYSSSREITEAAVLLFYR
notes: also called conjugate of TNFR2 and intelectin
Take B1: in test [1], the dissociation constant (Kd) worked out at 468 pM. The kon in test [1] was 1.14e+06 M⁻¹ s⁻¹. Also, the koff in test [2] was 0.000536 s⁻¹. Moreover, the “EC50 (read off the curve)” value in test [3] and in test [4] was roughly 0.3 µg/mL throughout.
